Data as given in publication PMC12462528, “Molecular basis of ParA ATPase activation by the CTPase ParB during bacterial chromosome segregation” (Nature Communications, 2025).
Where a chain is given by its changes, count along the chain named. Numbers in names are those of the source.

T1: ParB-Q52A (Myxococcus xanthus DK1622, UniProt Q1CVJ4 1-296, Q52A)
T1 construct: ParB of Myxococcus xanthus DK1622, variant lacking CTPase activity; Closed clamps formed with CTP and parS DNA; also called CTP hydrolysis-deficient ParB variant; source: E. coli Rosetta(DE3)pLysS, purified (as wild-type ParB)
T1 sequence (looked up): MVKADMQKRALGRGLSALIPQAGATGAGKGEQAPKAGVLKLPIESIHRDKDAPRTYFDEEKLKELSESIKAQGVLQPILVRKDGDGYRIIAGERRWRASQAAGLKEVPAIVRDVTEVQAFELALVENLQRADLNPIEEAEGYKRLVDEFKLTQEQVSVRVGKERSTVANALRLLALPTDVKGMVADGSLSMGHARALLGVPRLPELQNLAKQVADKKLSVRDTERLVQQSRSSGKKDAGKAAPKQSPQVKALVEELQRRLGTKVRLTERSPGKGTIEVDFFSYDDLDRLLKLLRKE

B1: ParA-D110R (natural protein, Myxococcus xanthus DK1622, UniProt Q1CVJ3 1-283, looked up)
chain: MHCITRGALAYGRGERGWATVGRIICISNQKGGVGKTTTAINLAASLASAERRTLLVDMDPQGNAGSGLGIKQDNITGTIYEALLNDRPIQELLHPTELRYLQVVPATPRLTGAEVELVNQDNREFRLRDALRPLAAEYDYIIIDCPPSLGLLTLNALAAADSVLIPLQCEYYALEGLSQLTHTIDLVKQGLNPDLKMEGILLTMFDSRANIAHQVVEEVRGYFKKQVFEVIVPRNVRLSECPSFGKPIILYDIKSKGCESYLALGRELMKRDTPKSPRRRVA
notes: ParA of Myxococcus xanthus DK1622 with an exchange in the helix H4/H6/H7 region; source: E. coli Rosetta(DE3)pLysS, purified (as His6-ParA)
B2: ParA-Y81L (natural protein, Myxococcus xanthus DK1622, UniProt Q1CVJ3 1-283, looked up)
chain: B1 chain with Y81L, R110D
notes: ParA of Myxococcus xanthus DK1622 with an exchange in the helix H4/H6/H7 region; also called Y81L variant; source: E. coli Rosetta(DE3)pLysS, purified (as His6-ParA)
B3: ParA-E117R (natural protein, Myxococcus xanthus DK1622, UniProt Q1CVJ3 1-283, looked up)
chain: B1 chain with R110D, E117R
notes: as for B1
B4: ParA-D110R/E117R (natural protein, Myxococcus xanthus DK1622, UniProt Q1CVJ3 1-283, looked up)
chain: B1 chain with E117R
notes: ParA of Myxococcus xanthus DK1622 with two exchanges in the helix H4/H6/H7 region; source: E. coli Rosetta(DE3)pLysS, purified (as His6-ParA)

Legend:
[1] = test system: ParA (His6-ParA) (Myxococcus xanthus); test: BLI; settings: 1 mM ATP, BLI: 25 mM HEPES/KOH pH 7.6, 100 mM KCl (150 or 500 mM where stated), 10 mM MgSO4, 1 mM DTT, 10 mM (so in the source) BSA, 0.01% Tween 20, temperature not stated
ParB-Q52A = molecular target: T1, ParB-Q52A; test: BLI; ParB-Q52A (10 µM) loaded on closed parS DNA on the biosensor; ParA variants (5 µM) in solution with ATP (1 mM) and 500 mM KCl; settings: both partners purified

| Molecule | Kd ([1]; 150 uM ParB1-20 peptide) | Kd ([1]; no ParB1-20 peptide) | binding result (ParB-Q52A) |
| --- | --- | --- | --- |
| 234-bp parS fragment, closed on biosensor | 0.4 µM | 7.8 µM |  |
| B1 |  |  | binds |
| B2 |  |  | binds |
| B3 |  |  | binds |
| B4 |  |  | binds |
